# Measured values: PMC3820547 (2013)
# B1: Replication Protein A (Q9V1Z1, Q9V1Y9, Q9V1Z0), His-tagged RPA complex (complex)
# chain 1: MVNVKNRNILRYSKVVDMTVLTKDRIIEIIERKTGMSREEIEEEIRKIMEEDPYLSEQGAAALLAERLGIDLIEKEEVSLMRISELYPGMDPREVNVVGRVLKKYPPREYTRKDGSVGRVASLIIYDDSGRARVVLWDAKVSEYYNKIEVGDVIKVLDAQVKESLSGLPELHINFRARIILNPDDPRVEMIPPLEEVRVATYTRKKIKDIEAGDRFVEVRGTIAKVYRVLTYDACPECKKKVDYDEGLGVWICPEHGEVQPIKMTILDFGLDDGTGYIRVTLFGDDAEELLGVSPEEIAEKIKELEESGLTTKEAARKLAEDEFYNIIGREIVVRGNVIEDRFLGLILRASSWEDVDYRREIERIKEELEKLGVM
# chain 2: MVIEMKKRMPATRLYIKDILEGYFVKSEGDFEPNYLITKYARKVYRAKIVGTVVREPLIAEDETYGKFQVDDGTGVIWVLGFRDDTKFAKLVRKGDLVQVIGKIAEWRDDKQILVEGVSKVHPNMWILHRYETLKEKIEHIKKAKIALEIYNQYGITAKSKVIAKNKGIEEELLEVIDELYGIMMEERSIEEPMEELLEEEIPEEKEENELLEKAKEDILNILRQKRTAISRKYILKKLGDKYDEETIDDAITELLAQGEIYEPETGYYKLL
# chain 3: MEVQVRRRKPAVERKISEIREEDTRVSLIGRVIKVDKMDYMFWLDDGTGVAIIESESDLPKVGQVVRVIGRIIRNEEGIHIYAEVIQDFSDADLEALEEIRELERKLLPRLEGEIVW
# B2: Primase small subunit P41 (Q9V292), HIS-tagged (natural protein)
# chain: MLLREVTKEERKEFYSNEWNAKQIPDFILQNLDKREFGFDHTGEGPSDRKNSYTDVRDLEDYIKATAPYAVYSSVAFYEKPQEMEGWLGAELVFDIDAKDLPLRRCNHEPGKVCPICLNDAKEIARDTLIVLKEELGFEDVHVVYSGRGYHIRVMDGWALSLDSKSRERILSFISASEIEDHSEFRKMLLERRGWFVLNHGYPRVFRLRFGYFILRVKVEHLINFGIRKNIAKRILDNKETIYEEFVRKGILAAFPDGVGIESLAKLFALSTRFSKAYFDGRVTVDLKRILRLPSTLHSKVGLIAKYIGNNERDVMRFNPFKHAVPKFRRKEVKEEYKRFLEENF
# Experiments:
# Assay in all cases: SPR; RPA bound to 32mer ssDNA
# [1] = biological target: T1, DNA Polymerase D (Q9V2F3, Q9V2F4), HIS-tagged complex (Pyrococcus abyssi, UniProt Q9V2F3 1-619; Q9V2F4 1-1455)
# [2] = biological target: T1, DNA Polymerase D (Q9V2F3, Q9V2F4), …; remark: listed apart in the source
# [3] = biological target: B1
# [4] = biological target: B1
binder,measurement,setting,value
B1,Kd,[1],51 nM
same,koff,[2],0.000202 s⁻¹
B2,Kd,[3],52 nM
same,koff,[4],0.000454 s⁻¹
